The values below come from the nanobody polyreactivity screen of Harvey et al. (2022).

The nature of the series: yeast display, Sf9 membrane polyspecificity reagent, FACS + sequencing; frameworks hold sequencing errors. The method, boiled down: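 Polyreactivity labels are assigned by the sorting gate from which each nanobody was recovered. The gates were low and high (top ~1%), set on anti-HA fluorescence for expression and streptavidin fluorescence for reagent binding. Before sorting, galactose-induced (36–48 hours) yeast display cells were stained for 1 hour at 4 °C with 10% biotinylated, detergent-solubilized Sf9 membrane reagent.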
As for “QVQLEESGGGLVQAGGSLRLSCAASGFTFTTNAMGWYRQAPGKERELVAAISFSGGTTYYADSVKGRFTISRDNAKNTVYLQMNSLKPEDTAVYYCAAQPGQAWWSTDHDDYWGQGTQVSVSS”, the “polyreactivity (PSR sort gate)” value was “low polyreactivity”.

Take “QVLLQESGGGLVQAGGSLRLCCAASGYISGDQIMGWYRQAPGKDREFVAGIGNGTNTNYADSVKGRFTTSRDNAKNTVYLQMNSLNPEDTAVYYCPADPSDGSTLAYWGQGTQVTVSS”: the “polyreactivity (PSR sort gate)” value was “high polyreactivity”.

In the case of “QVQLVESGGGLVQAGGSLRLSCAASGFTFGRYAMGWYRQAPGKVRELVAAINWSGGSTYYADSVKGRFTISRDNAKNTVYLQMNSLKPEDPAVYYCNKGVSRSSVRGDYWGQGTQVTVSS”, the “polyreactivity (PSR sort gate)” value was “high polyreactivity”.

Regarding “QVQLEESGGGLVQAGGSLRLSCAASGRIFKSYTMGGYRQAPGKERELVAAITKSAASTYYADSVKGRFTISRDNAKNTVYLQMNSLKPVDTAVYYCAASRIGGGKVKFGYWGQGTQVTVSS”, the “polyreactivity (PSR sort gate)” value was “high polyreactivity”.

“QVQLVESGGGLVQAGGSLRLSCAAYGSIFGSYCMGWYRQAPGKERELVAAIRVSGGSTYYADSVKGRFTISRDNAKNTVYLQMNSLKPEDTAVYYCAARARSTPRKYYYTRGYWGQGSQVTVSS”: the “polyreactivity (PSR sort gate)” value was “high polyreactivity”.

For “QVQLVESGGGLVQAGGSLRLSCDASGSIFQRYAMGWYRPAPGKERELVAGINWSGGRTYYADSVKGRFTISRDNAKNTVYLQMISLKPEDTAVYYCAAARYTRYDYWGQGTQVTVSS”, the “polyreactivity (PSR sort gate)” value is on record as “high polyreactivity”.

With “QVQLEESGGGIVQAGGSLRLSCAASGITFYWYAMGWYRQAPGKERELVASITGNGGGTSYADSVKGRFTISRDNAKNTVYLQMNSLKPEDTAVYYCNTSVGVKDYVSWGQGTQVTLSS”, the “polyreactivity (PSR sort gate)” value is given as “low polyreactivity”.

With “QVQLVESGGGLVQAGGSLRLSCAASGRIFSYNAMGWYRQAPGKERELVAAISSDGSTYYADSVKGRFTISRDNAKNTVYLQMNRLKPEDTAVYYCAAYPRVNGNIHSTGDYWGQGTQVTVSS”, the “polyreactivity (PSR sort gate)” value is on record as “low polyreactivity”.

In the case of “QVQLVESGGGLVQAGGSLRLSCAASGFIFYQYAMGWYRQAPGKERELVATISFRGGRTYYADSVKGRFTISRDNAKNTVYLQMNSLKPEDTAVYYCNAKRVSSRFYKWDYYWGQGTEVTVSS”, the “polyreactivity (PSR sort gate)” value is given as “high polyreactivity”.

With “QVQLVESGGGLVQAGGSLRLSCAASGSTIFLYDMGWYRQAPGKESELVAAITISGGSTYYADSVKGRFTISRDNAKNTVDLQMNSLKPEDTAVYYCAADRQWISLFGYPDGYDYWGQGTQVTVSS”, the “polyreactivity (PSR sort gate)” value is listed as “high polyreactivity”.

Consider “QVQLVESGGGLVQAGGSLRLSCAASGSTFYYYAMGWYRQAPGKERELVAAISVRAGITYYADSVKGRFTISRDNAKNTVYLQMNSLKPEDTAVYYCAKDHWTTSSDEGDYWGQGTQVTVSS”, for which the “polyreactivity (PSR sort gate)” value was “low polyreactivity”.

“QVQLVESGGGLVQAGGSLRLSCAASGSIFVPNDMGWYRQAPGKEREFVAAITESDGSTYNADSVKGRFTISRDNAKNTVYLQMNSLKPEDTAVYYCATDSTGVTIVHFDYWGQGTQVTVSS”: the “polyreactivity (PSR sort gate)” value is “low polyreactivity”.

For “QDQLVESGGGLVQARGSLRLSSAATGSIFGTKAKGWYRQATGKEKEYDAAIDYSGSITRYADSVKGRFTISRDLSKNTVYLKMNSLKPEDTAVYYCAARSYAKDWGGYNYWGQGTQGTVSS”, the “polyreactivity (PSR sort gate)” value was “high polyreactivity”.

On to “QVQLVESGGGLVQAGGSLRLSCAASGRTFAINAMGWHRQAPGKERELVADITTDGSTYYADSVKGRFTISRDNAKNTVYLQMNSLKPEDTAVYYCATDSLDYFIRFKQFGYWGQGTQVTVSS”, for which the “polyreactivity (PSR sort gate)” value is reported as “low polyreactivity”.

For the sequence “QVQLVESVGGLVQAGGSLRLSCAASGSTFGTYAMGWYRQAPGKVSELVAAISNSGGSTYYADSVKGRFTISRDNAKNTVYLQMNSLKPEDTAVYYCNTDGLVRNGPFFSWGQGTQVTVSS”, the “polyreactivity (PSR sort gate)” value is on record as “low polyreactivity”.

Consider “QVQLVESGGGLVQAGGSLRLSCAASGSTFNIYVMGWYRQAPGKERELVAAITTSGRTYYADSVKGRFTISRDNAKNTVYLQMNSLKPEDTAVYYCAAVPVRYRYSYGYYYWGQGTQVTVSS”, for which the “polyreactivity (PSR sort gate)” value was “high polyreactivity”.

Regarding “QVHLVESGGGLVQAGGSLRLSCAASGRTCRINAMGWYRQAPGKERELVAAITSGGRTNYADSVKGRFTISRDNAKNTVYLQMNSLKPEDTAVYYCAADTTHWYYLGYGYWGQGNQVTVSS”, the “polyreactivity (PSR sort gate)” value was “low polyreactivity”.

In the case of “QVQLVESGGGLVQAGGSLRLICAASGSIFSIYAMGWYRQAPGKERELVAAITWGGGSTYYADSVKGRFTISRDNAKNTVYLQINSLKPEDTAVYDCAAESLTWYGTYYYWGQGTQVTVSS”, the “polyreactivity (PSR sort gate)” value is recorded as “high polyreactivity”.

With “QVQLVESGGGLVQAGGSLRLSCAASGYTFRRYAMGWYRQAPGKERELVAAINYSGGSTYYADSVKGRFTISRDNSKNTVYLQMNSLKPEDTAVYYCAARVPSPYVATYYYWGQGTQVTVSS”, the “polyreactivity (PSR sort gate)” value is listed as “high polyreactivity”.

As for “QVQLVESGGGFVQAGGSLRLSCAASGGTFYRYAMGWYRQAPGKERELVAVISRGLRTNYADSVKGRFTISRDNAKNTVYFQMNSLQPEDTAVYYCAAHQYRVYRHGFDYWGQGTQVTVSS”, the “polyreactivity (PSR sort gate)” value is “high polyreactivity”.

Take “QVQLVESGGGLLHAGGSLRLSCAASGRIFWFYTMGWYRQAPGKERELVAAISDSAGSTYYADSVKGRFTISRDNAKYTVYVPMNSLKPEDTAVYYCDADGWWQYDYWGHGTQVTVSS”: the “polyreactivity (PSR sort gate)” value is listed as “low polyreactivity”.

As to “QVQLVESGGGLVQAGGSLRLSCAASGGTLRGYAMGWYRQAPGKERELVAAISKRSGSTYYADSVKGRFTISRDNAKNTVYLQMNSLKPEDTAVYYCNTRGLTTEGHYYWGQGTQVTVSS”, the “polyreactivity (PSR sort gate)” value is given as “high polyreactivity”.

“QVQLVESGGGLVQAGGSLRLSCAASGLTFYQYAMGWYRQATGKETELVAAITSAGITYADSVKGRFTISRDNAKNTVYLQMNSLKPEDTAVYYCAKDDYFSYGYVEFDYWGQGTQVTVSS”: the “polyreactivity (PSR sort gate)” value is listed as “low polyreactivity”.

In the case of “QVQLVESGGGLVQAGGSLRLSCAASGNTFNPNAMGWYRQAPGKERELVAVIRFRGGSTYYADSVKGRFTISRDNAKNTVYLQMNSLKTEDTAVYDCAADFLYYYLRYYYWGQGTQVTVSS”, the “polyreactivity (PSR sort gate)” value is “high polyreactivity”.

For “QVQLVESGGGLVQAGGSLRLSCAASGSTFSRYAMGWYRPAPGKERELVAAISYSGDSTYYADSVKGRFTISRDNAKNTVYLQMNSLKPEDTAVYYCNVYSHYRGYYWGQGTQVTVSS”, the “polyreactivity (PSR sort gate)” value was “high polyreactivity”.

Regarding “QVQLVESGGGLVQAGGSLRLSCAASGSTFYRYAMGWYRQAPGKERELVATISWTDGRTNYADSVKGRFTISRDNAKNPVYLQMNSLKPEDTAVYDCAARRYRRWYDYWGQGTQVTVSS”, the “polyreactivity (PSR sort gate)” value was “high polyreactivity”.

For “QVQLVESGGGLVQAGGSLRLSCAASGSIFKSYAMGWYRQAPGKERELVAAITWRSGRTYYADSVKGRFTISRDNAKNTVYLQMNSLKPEDTAVYYCAADDTSYYIYSYDYWGQGTQVTVSS”, the “polyreactivity (PSR sort gate)” value is reported as “low polyreactivity”.

For the sequence “QVQLVESGGGLVQAGGSLRLSCAASGRTFYINAMGWYRQAPGKEREFVAAITDGGDRTYYADSVKGRFTISRDNEKNTVYLQMNSLKPEDTAVYYCAADRGVRYDYWGQGTQVTVSS”, the “polyreactivity (PSR sort gate)” value is given as “low polyreactivity”.

Turning to “QVQLVESGGGLVQAGGSLLLSCAASGIIFTRYVMGWYRQAPGKERELVATIRIGGSTTYADSVKGRFTISRDNAKITVYLQMYSLKPEDTAVYYCAADTWYITTYGGAGSYAYGFYYWGQGTQVTVSS”, the “polyreactivity (PSR sort gate)” value was “low polyreactivity”.

Turning to “QVQLVESGGGLVQAGGSLRLSCAASGRTFRVYVMGWYRQAPGKERELVAAISKSGTSTYYADSVKGRFTISRDNAKNTVYLQMNSLKPEDTAVYYCAAALPGYGDYYYWGQGTQVTVSS”, the “polyreactivity (PSR sort gate)” value is “high polyreactivity”.

As to “QVQLVESGGGLVQAGGSLRLSCAASGSTFPYVMGWSRQAPGKERELVAAISQRTGSTYYADSVKGRFTSSRDNAKNTVYLQMNSLKPEDTAVYYCAKPGYLRPSRYDYWGQGTQVTVSS”, the “polyreactivity (PSR sort gate)” value is reported as “high polyreactivity”.

On to “QVQLVESGAGLFQAGGRLRLSCAPSGSTFGTYAMGWYRQAPGKERELVAAITSGGSTDYADSVKGRFTISRDNAKNTVYLQMNSLKPEDTAVYYCNATWELLSYYYLFWGYDYWGQGTQVTVSS”, for which the “polyreactivity (PSR sort gate)” value is “low polyreactivity”.

For “QVQLVESGGGLVQAGGSLRLSCAASGYTFQTYAMGCYRQAPGKERELVAAITRSGTRTYYADSVKGRFTISRDNAKNTVYLQMYSLKPEDTAVYYCAAETYYSIYDYWGQGTQVTVSS”, the “polyreactivity (PSR sort gate)” value is on record as “high polyreactivity”.

With “QVQLVESGGGLVQAGGSLRLSCAASGSTFYSYAMGWYRQAPGKERELVAAITTSGGSTYYADSVKGRFTISRDNAKNTVYLQMNSLKPEDTAVYYCAAYDLYWYEYWGQGTQVTVSS”, the “polyreactivity (PSR sort gate)” value is listed as “low polyreactivity”.

As to “QVQIVESGGGVVQAGGSLRLSCAASGYILDRNSMGWYRQAPGKERELVAVISWGGTRTYYADSVKGRFTISRDNAKNTVSLQMNSLKPVDTAVYYCNGKGWYYKYDYWGQGTQVTVSS”, the “polyreactivity (PSR sort gate)” value is listed as “high polyreactivity”.

In the case of “QVQLVESGGGLVQAGGSLRLSCAASGSTFEANAMGWYRQAPGNERELVAVITWTGGSTYYADSVKGRFTISRDNAKNTVYLQMNSLKPEDTAVYYCAADGVVPGRFFWPAHEYDYWGQGTQVTVSS”, the “polyreactivity (PSR sort gate)” value is reported as “low polyreactivity”.

As for “QVQLVESGGDLVQAGGSLRLSCAASGRTFRYYAMGWYRLAPGKERELVAAISSSGDRTYYADSVKGRFTISRDTAKNTVYLQLNSLKPEDTAVYYCAADRGARGDYCGQGTQVTVSS”, the “polyreactivity (PSR sort gate)” value is “high polyreactivity”.

Regarding “QVQLVESGGGLVQAGGSLRLSCAASGFTLLKNAMRGYRQAPGKERELVAAIRVSGGSTYYADSVKGRFTISRDNAKNSVYLQMNSLKPEDTAVYYCAAKYLRWPVSTMYYWGQGTQVTVSS”, the “polyreactivity (PSR sort gate)” value is “high polyreactivity”.

With “QGQHVESGGGLVQAGGSLPLSCAASGFIFNLYAMGWSRQAPGKERELVAAISSGGGTSYADSVKGRFTISRDNAKNTVYLQMNTLKPEDTADYYCAARAWYRVSAYDYWGQGTQVTVSS”, the “polyreactivity (PSR sort gate)” value was “high polyreactivity”.

Take “QVQLVESGGGLVQAGGSLRLSCAASGIILWRNAMGWYRQAPGKDRELVAAITSSGGRTYYADSVKGRFTISRDNAKNTVYLQMNSLKPEDTAVYYCSAYGYSIGPYDYWGQGTQVTVSS”: the “polyreactivity (PSR sort gate)” value was “high polyreactivity”.

Consider “QVQRVESGGGLVQAGGSLRLSCAASGRIFSANAMGWYRQAPGKERELVATISTGGGRTYYADSVKGRFTISRDNAKNTVYLQMNSLKPEDTAVYYCNATRNYARVRYYYWGQGTQVTVSS”, for which the “polyreactivity (PSR sort gate)” value is on record as “high polyreactivity”.
